For this assay, the system named is HCoV-OC43 gRNA and sgRNA. The class given is binding. As to conditions: for target (unweighted spectral count, OC43 Probe II capture) / target (unweighted spectral count): tested against no-probe control; for target (unweighted spectral count, OC43 Probe II capture): FDR<10%; for target (unweighted spectral count): OC43 Probe II, infected cells.

Read-outs that look alike come from different tables or passages of the source.

B1: PKP1 (protein, UniProt Q13835 1-747, looked up)
Plakophilin-1: MNHSPLKTALAYECFQDQDNSTLALPSDQKMKTGTSGRQRVQEQVMMTVKRQKSKSSQSSTLSHSNRGSMYDGLADNYNYGTTSRSSYYSKFQAGNGSWGYPIYNGTLKREPDNRRFSSYSQMENWSRHYPRGSCNTTGAGSDICFMQKIKASRSEPDLYCDPRGTLRKGTLGSKGQKTTQNRYSFYSTCSGQKAIKKCPVRPPSCASKQDPVYIPPISCNKDLSFGHSRASSKICSEDIECSGLTIPKAVQYLSSQDEKYQAIGAYYIQHTCFQDESAKQQVYQLGGICKLVDLLRSPNQNVQQAAAGALRNLVFRSTTNKLETRRQNGIREAVSLLRRTGNAEIQKQLTGLLWNLSSTDELKEELIADALPVLADRVIIPFSGWCDGNSNMSREVVDPEVFFNATGCLRKRLGMRELLALVPQRATSSRVNLSSADAGRQTMRNYSGLIDSLMAYVQNCVAASRCDDKSVENCMCVLHNLSYRLDAEVPTRYRQLEYNARNAYTEKSSTGCFSNKSDKMMNNNYDCPLPEEETNPKGSGWLYHSDAIRTYLNLMGKSKKDATLEACAGALQNLTASKGLMSSGMSQLIGLKEKGLPQIARLLQSGNSDVVRSGASLLSNMSRHPLLHRVMGNQVFPEVTRLLTSHTGNTSNSEDILSSACYTVRNLMASQPQLAKQYFSSSMLNNIINLCRSSASPKAAEAARLLLSDMWSSKELQGVLRQQGFDRNMLGTLAGANSLRNFTSRF
For B1, the “target (unweighted spectral count, OC43 Probe II capture)” value (24 hpi, type n_24_v) worked out at 4.

B2: KRT14 (protein, UniProt P02533 1-472, looked up)
Keratin, type I cytoskeletal …: MTTCSRQFTSSSSMKGSCGIGGGIGGGSSRISSVLAGGSCRAPSTYGGGLSVSSSRFSSGGACGLGGGYGGGFSSSSSSFGSGFGGGYGGGLGAGLGGGFGGGFAGGDGLLVGSEKVTMQNLNDRLASYLDKVRALEEANADLEVKIRDWYQRQRPAEIKDYSPYFKTIEDLRNKILTATVDNANVLLQIDNARLAADDFRTKYETELNLRMSVEADINGLRRVLDELTLARADLEMQIESLKEELAYLKKNHEEEMNALRGQVGGDVNVEMDAAPGVDLSRILNEMRDQYEKMAEKNRKDAEEWFFTKTEELNREVATNSELVQSGKSEISELRRTMQNLEIELQSQLSMKASLENSLEETKGRYCMQLAQIQEMIGSVEEQLAQLRCEMEQQNQEYKILLDVKTRLEQEIATYRRLLEGEDAHLSSSQFSSGSQSSRDVTSSSRQIRTKVMDVHDGKVVSTHEQVLRTKN
Turning to B2, the “target (unweighted spectral count, OC43 Probe II capture)” value (24 hpi, type n_24_v) came out at 7.

B3: KRT6A (protein, UniProt P02538 2-564, looked up)
Keratin, type II cytoskeletal …: ASTSTTIRSHSSSRRGFSANSARLPGVSRSGFSSVSVSRSRGSGGLGGACGGAGFGSRSLYGLGGSKRISIGGGSCAISGGYGSRAGGSYGFGGAGSGFGFGGGAGIGFGLGGGAGLAGGFGGPGFPVCPPGGIQEVTVNQSLLTPLNLQIDPTIQRVRAEEREQIKTLNNKFASFIDKVRFLEQQNKVLETKWTLLQEQGTKTVRQNLEPLFEQYINNLRRQLDSIVGERGRLDSELRGMQDLVEDFKNKYEDEINKRTAAENEFVTLKKDVDAAYMNKVELQAKADTLTDEINFLRALYDAELSQMQTHISDTSVVLSMDNNRNLDLDSIIAEVKAQYEEIAQRSRAEAESWYQTKYEELQVTAGRHGDDLRNTKQEIAEINRMIQRLRSEIDHVKKQCANLQAAIADAEQRGEMALKDAKNKLEGLEDALQKAKQDLARLLKEYQELMNVKLALDVEIATYRKLLEGEECRLNGEGVGQVNISVVQSTVSSGYGGASGVGSGLGLGGGSSYSYGSGLGVGGGFSSSSGRAIGGGLSSVGGGSSTIKYTTTSSSSRKSYKH
In the case of B3, the “target (unweighted spectral count, OC43 Probe II capture)” value (24 hpi, type n_24_v) is 4.

B4: MTDH (protein, UniProt Q86UE4 1-582, looked up)
Protein LYRIC: MAARSWQDELAQQAEEGSARLREMLSVGLGFLRTELGLDLGLEPKRYPGWVILVGTGALGLLLLFLLGYGWAAACAGARKKRRSPPRKREEAAAVPAAAPDDLALLKNLRSEEQKKKNRKKLSEKPKPNGRTVEVAEGEAVRTPQSVTAKQPPEIDKKNEKSKKNKKKSKSDAKAVQNSSRHDGKEVDEGAWETKISHREKRQQRKRDKVLTDSGSLDSTIPGIENTITVTTEQLTTASFPVGSKKNKGDSHLNVQVSNFKSGKGDSTLQVSSGLNENLTVNGGGWNEKSVKLSSQISAGEEKWNSVSPASAGKRKTEPSAWSQDTGDANTNGKDWGRSWSDRSIFSGIGSTAEPVSQSTTSDYQWDVSRNQPYIDDEWSGLNGLSSADPNSDWNAPAEEWGNWVDEERASLLKSQEPIPDDQKVSDDDKEKGEGALPTGKSKKKKKKKKKQGEDNSTAQDTEELEKEIREDLPVNTSKTRPKQEKAFSLKTISTSDPAEVLVKNSQPIKTLPPATSTEPSVILSKSDSDKSSSQVPPILQETDKSKSNTKQNSVPPSQTKSETSWESPKQIKKKKKARRET
On to B4, for which the “target (unweighted spectral count, OC43 Probe II capture)” value by setting is: (24 hpi, type n_24_v) 5; (36 hpi, type n_36_v) 6. In addition, the “target (unweighted spectral count, OC43 Probe II)” value (type n_48_v, 48 hpi, OC43 Probe II capture on infected cells) came to 6. Also, under “type n_48_v, 48 hpi, no-probe control on infected cells”, the “background (unweighted spectral count, no-probe control)” value amounted to 1.

B5: RBFOX2 (protein, UniProt O43251 1-390, looked up)
RNA binding protein fox-1 …: MQNEPLTPGYHGFPARDSQGNQEPTTTPDAMVQPFTTIPFPPPPQNGIPTEYGVPHTQDYAGQTGEHNLTLYGSTQAHGEQSSNSPSTQNGSLTTEGGAQTDGQQSQTQSSENSESKSTPKRLHVSNIPFRFRDPDLRQMFGQFGKILDVEIIFNERGSKGFGFVTFENSADADRAREKLHGTVVEGRKIEVNNATARVMTNKKMVTPYANGWKLSPVVGAVYGPELYAASSFQADVSLGNDAAVPLSGRGGINTYIPLISLPLVPGFPYPTAATTAAAFRGAHLRGRGRTVYGAVRAVPPTAIPAYPGVVYQDGFYGADLYGGYAAYRYAQPATATAATAAAAAAAAYSDGYGRVYTADPYHALAPAASYGVGAVASLYRGGYSRFAPY
Turning to B5, the “target (unweighted spectral count, OC43 Probe II capture)” value is 4 (24 hpi, type n_24_v) and 4 (36 hpi, type n_36_v).

B6: DDX21 (protein, UniProt Q9NR30 1-783, looked up)
Nucleolar RNA helicase 2: MPGKLRSDAGLESDTAMKKGETLRKQTEEKEKKEKPKSDKTEEIAEEEETVFPKAKQVKKKAEPSEVDMNSPKSKKAKKKEEPSQNDISPKTKSLRKKKEPIEKKVVSSKTKKVTKNEEPSEEEIDAPKPKKMKKEKEMNGETREKSPKLKNGFPHPEPDCNPSEAASEESNSEIEQEIPVEQKEGAFSNFPISEETIKLLKGRGVTFLFPIQAKTFHHVYSGKDLIAQARTGTGKTFSFAIPLIEKLHGELQDRKRGRAPQVLVLAPTRELANQVSKDFSDITKKLSVACFYGGTPYGGQFERMRNGIDILVGTPGRIKDHIQNGKLDLTKLKHVVLDEVDQMLDMGFADQVEEILSVAYKKDSEDNPQTLLFSATCPHWVFNVAKKYMKSTYEQVDLIGKKTQKTAITVEHLAIKCHWTQRAAVIGDVIRVYSGHQGRTIIFCETKKEAQELSQNSAIKQDAQSLHGDIPQKQREITLKGFRNGSFGVLVATNVAARGLDIPEVDLVIQSSPPKDVESYIHRSGRTGRAGRTGVCICFYQHKEEYQLVQVEQKAGIKFKRIGVPSATEIIKASSKDAIRLLDSVPPTAISHFKQSAEKLIEEKGAVEALAAALAHISGATSVDQRSLINSNVGFVTMILQCSIEMPNISYAWKELKEQLGEEIDSKVKGMVFLKGKLGVCFDVPTASVTEIQEKWHDSRRWQLSVATEQPELEGPREGYGGFRGQREGSRGFRGQRDGNRRFRGQREGSRGPRGQRSGGGNKSNRSQNKGQKRSFSKAFGQ
As to B6, the “target (unweighted spectral count, OC43 Probe II capture)” value (24 hpi, type n_24_v) turned out to be 7.

B7: KRT1 (protein, UniProt P04264 2-644, looked up)
Keratin, type II cytoskeletal …: SRQFSSRSGYRSGGGFSSGSAGIINYQRRTTSSSTRRSGGGGGRFSSCGGGGGSFGAGGGFGSRSLVNLGGSKSISISVARGGGRGSGFGGGYGGGGFGGGGFGGGGFGGGGIGGGGFGGFGSGGGGFGGGGFGGGGYGGGYGPVCPPGGIQEVTINQSLLQPLNVEIDPEIQKVKSREREQIKSLNNQFASFIDKVRFLEQQNQVLQTKWELLQQVDTSTRTHNLEPYFESFINNLRRRVDQLKSDQSRLDSELKNMQDMVEDYRNKYEDEINKRTNAENEFVTIKKDVDGAYMTKVDLQAKLDNLQQEIDFLTALYQAELSQMQTQISETNVILSMDNNRSLDLDSIIAEVKAQYEDIAQKSKAEAESLYQSKYEELQITAGRHGDSVRNSKIEISELNRVIQRLRSEIDNVKKQISNLQQSISDAEQRGENALKDAKNKLNDLEDALQQAKEDLARLLRDYQELMNTKLALDLEIATYRTLLEGEESRMSGECAPNVSVSVSTSHTTISGGGSRGGGGGGYGSGGSSYGSGGGSYGSGGGGGGGRGSYGSGGSSYGSGGGSYGSGGGGGGHGSYGSGSSSGGYRGGSGGGGGGSSGGRGSGGGSSGGSIGGRGSSSGGVKSSGGSSSVKFVSTTYSGVTR
For B7, where the note is “24 hpi, type n_24_v”, the “target (unweighted spectral count, OC43 Probe II capture)” value is listed as 49.

B8: HMGB1 (protein, UniProt P09429 1-215, looked up)
High mobility group protein B1: MGKGDPKKPRGKMSSYAFFVQTCREEHKKKHPDASVNFSEFSKKCSERWKTMSAKEKGKFEDMAKADKARYEREMKTYIPPKGETKKKFKDPNAPKRPPSAFFLFCSEYRPKIKGEHPGLSIGDVAKKLGEMWNNTAADDKQPYEKKAAKLKEKYEKDIAAYRAKGKPDAAKKGVVKAEKSKKKKEEEEDEEDEEDEEEEEDEEDEDEEEDDDDE
As for B8, the “target (unweighted spectral count)” value was found to be 7 (12 hpi (type n_12_v)) and 6 (24 hpi (type n_24_v)).

B9: LMNA (protein, UniProt P02545 1-661, looked up)
Prelamin-A/C: METPSQRRATRSGAQASSTPLSPTRITRLQEKEDLQELNDRLAVYIDRVRSLETENAGLRLRITESEEVVSREVSGIKAAYEAELGDARKTLDSVAKERARLQLELSKVREEFKELKARNTKKEGDLIAAQARLKDLEALLNSKEAALSTALSEKRTLEGELHDLRGQVAKLEAALGEAKKQLQDEMLRRVDAENRLQTMKEELDFQKNIYSEELRETKRRHETRLVEIDNGKQREFESRLADALQELRAQHEDQVEQYKKELEKTYSAKLDNARQSAERNSNLVGAAHEELQQSRIRIDSLSAQLSQLQKQLAAKEAKLRDLEDSLARERDTSRRLLAEKEREMAEMRARMQQQLDEYQELLDIKLALDMEIHAYRKLLEGEEERLRLSPSPTSQRSRGRASSHSSQTQGGGSVTKKRKLESTESRSSFSQHARTSGRVAVEEVDEEGKFVRLRNKSNEDQSMGNWQIKRQNGDDPLLTYRFPPKFTLKAGQVVTIWAAGAGATHSPPTDLVWKAQNTWGCGNSLRTALINSTGEEVAMRKLVRSVTVVEDDEDEDGDDLLHHHHGSHCSSSGDPAEYNLRSRTVLCGTCGQPADKASASGSGAQVGGPISSGSSASSVTVTRSYRSVGGSGGGSFGDNLVTRSYLLGNSSPRTQSPQNC
As to B9, the “target (unweighted spectral count)” value by setting is: (12 hpi (type n_12_v)) 7; (24 hpi (type n_24_v)) 8.

(Values after patent publication US20230407373A1 (priority 2020, published 2023).)
